Data published in publication PMC4599338 (Microbial Cell Factories, 2015).
Changes are numbered by the printed parent chain.

B1: sdAb clone L1-G2 (VHH)
VHH: EVQLQASGGGLVQAGGSLRLSCTASGRAFSTTNMGWFRQAPGKEREFVTRVNWSGGVTSYADSVKGRFTLSRDNTKNTVYLQMDSLKPEDTAVYYCAGSTVWSTDRKHYNYWGQGTQVTVSS
B2: sdAb clone L1-G2+neg2 (VHH)
VHH: B1 VHH with Q5V, A6E, A14D, G16D, T49C, L70C, R72A
B3: sdAb clone L1-G2+ (VHH)
VHH: B1 VHH with T49C, L70C
B4: sdAb clone L1-G2+neg (VHH)
VHH: B1 VHH with Q5V, A6E, A14D, G16D, T49C, L70C
B5: AC (VHH)
VHH: DVQLQASGGGLVQPGGSLRLTCAASGLIFGSYAMGWFRQAPGKAREFVAAISWSGGDTYADSVKGRFTISRDNAKNTVYLQMNSLEPEDTAVYSCAAVGSKYYISKDAKDYGYWGQGTQVTVSS

target: Vaccinia Virus, Western Reserve, L1R Protein with C-Terminal Histidine Tag, Recombinant from baculovirus (Vaccinia virus, Western Reserve, UniProt P07612); assay: SPR; […] (100 to 0 nM, […], dissociation 600 s; […]; Langmuir model; […]; conditions: both partners purified

Q: How did the Kd turn out when B1 was run?
A: The Kd was 1.1 nM.

Q: And the koff?
A: Its koff is 0.00063 s⁻¹.

Q: What about the kon of the same binder?
A: The kon was 580000 M⁻¹ s⁻¹.

Q: B2 was tested. Which Kd did it give?
A: Its Kd is 23 nM.

Q: What about the koff of the same binder?
A: Its koff is 0.013 s⁻¹.

Q: What about the kon of the same binder?
A: Its kon is 540000 M⁻¹ s⁻¹.

Q: B3 was tested. Which Kd did it give?
A: Its Kd is 2.4 nM.

Q: And the koff?
A: The koff was 0.0013 s⁻¹.

Q: And the kon?
A: The kon was 590000 M⁻¹ s⁻¹.

Q: B4 was tested. Which Kd did it give?
A: Its Kd is 3.3 nM.

Q: What about the koff of the same binder?
A: Its koff is 0.0014 s⁻¹.

Q: And the kon?
A: Its kon is 420000 M⁻¹ s⁻¹.

target: Staphylococcal enterotoxin B (Staphylococcus aureus, strain , UniProt P01552); assay: not given; conditions: not given

Q: Does B5 bind?
A: Result: binds
